# “And” between values parts separate entries of the source, which are not always exact repeats. Equal values may be shown once. Bridge positions count the residues as written; N and C are the ends. Ends that are not written are not given here. * marks the point of attachment. Butanoyl(4-pyren-1-yl) = O=C(CCCc1ccc2ccc3cccc4ccc1c2c34)*; Tpa = triphenylacetyl, O=C(C(c1ccccc1)(c1ccccc1)c1ccccc1)*; Acetyl(1-pyrenyl) = O=C(Cc1ccc2ccc3cccc4ccc1c2c34)*; Phenylacetyl(4-Ph) = O=C(Cc1ccc(-c2ccccc2)cc1)*; Benzoyl(4-heptyl) = CCCCCCCc1ccc(C(=O)*)cc1; Acetyl(1-naphthyl) = O=C(Cc1cccc2ccccc12)*; Diphenylacetyl = O=C(C(c1ccccc1)c1ccccc1)*; cPrCO(2,2,3,3-Me4) = CC1(C)C(C(=O)*)C1(C)C; Ibuprofenoyl = CC(C)Cc1ccc(C(C)C(=O)*)cc1; Hexanoyl(6-Ph) = O=C(CCCCCc1ccccc1)*; PhAc = O=C(Cc1ccccc1)*
# Legend:
# [1] = molecular target: human α4β7 integrin (human), P13612; test: inhibition of HUT 78 cell adhesion to murine MAdCAM-1/mCk
# [2] = molecular target: human α4β7 integrin (human), P13612; test: inhibition of HUT 78 cell adhesion to murine MAdCAM-1/mCk at 500 µM
# [3] = molecular target: human α4β7 integrin (human), P13612; test: inhibition of RPMI 8866 cell adhesion to huMAdCAM-1-Ig
# [4] = molecular target: human α4β7 integrin (human) (UniProt P13612); test: inhibition of HUT 78 cell adhesion to murine MAdCAM-1/mCk at 500 µM
# [5] = molecular target: human α4β7 integrin (human) (UniProt P13612); test: inhibition of HUT 78 cell adhesion to murine MAdCAM-1/mCk
# [6] = molecular target: human α4β7 integrin (human), P13612; test: inhibition of HUT 78 cell adhesion to murine MAdCAM-1/mCk at 250 µM
# [7] = molecular target: human α4β7 integrin (human) (UniProt P13612); test: inhibition of HUT 78 cell adhesion to murine MAdCAM-1/mCk at 50 µM
Binder,IC50 [1] [µM],% Adhesion Inhibition [2] [%],IC50 [5],other results
Ac-LDTSF (not fully specified (C-terminus); printed as Ac-Leu-Asp-Thr-Ser-Phe) [Ac-Leu-Asp-Thr-Ser-Phe],144,86,,
Ac-RGLDTSL (not fully specified (C-terminus); printed as Ac-Arg-Gly-Leu-Asp-Thr-Ser-Leu) [Ac-Arg-Gly-Leu-Asp-Thr-Ser-Leu],1580,35,,
Ac-LDVSL (not fully specified (C-terminus); printed as Ac-Leu-Asp-Val-Ser-Leu) [Ac-Leu-Asp-Val-Ser-Leu],71,,,
"LDTSL (modifications not checked) [R1-Leu-Asp-Thr-Ser-Leu, L# 1491 (Table 4)]",,,,IC50 [3]: 3.4 µM
Ac-HWRGLDT (not fully specified (C-terminus); printed as Ac-His-Trp-Arg-Gly-Leu-Asp-Thr) [Ac-His-Trp-Arg-Gly-Leu-Asp-Thr],584,49,,
{Acetyl(1-naphthyl)}-LDTSL (not fully specified (C-terminus); printed as Npa-Leu-Asp-Thr-Ser-Leu) [Npa-Leu-Asp-Thr-Ser-Leu],,,548 µM,% Adhesion Inhibition [4]: 39%
Ac-LFTSL (not fully specified (C-terminus); printed as Ac-Leu-Phe-Thr-Ser-Leu) [Ac-Leu-Phe-Thr-Ser-Leu],300,29,,
PhAc-LDTSL (not fully specified (C-terminus); printed as Pha-Leu-Asp-Thr-Ser-Leu) [Pha-Leu-Asp-Thr-Ser-Leu],,,2130 µM,% Adhesion Inhibition [4]: 38%
Ac-LDTSL (not fully specified (C-terminus); printed as Ac-Leu-Asp-Thr-Ser-Leu) [Ac-Leu-Asp-Thr-Ser-Leu (00389-1A)],,,205 µM,% Adhesion Inhibition [4]: 29%
Ac-WRGLDTS (not fully specified (C-terminus); printed as Ac-Trp-Arg-Gly-Leu-Asp-Thr-Ser) [Ac-Trp-Arg-Gly-Leu-Asp-Thr-Ser],862,44,,
Tpa-LDTSL [Tpa-Leu-Asp-Thr-Ser-Leu],,,0.3 µM,
"{cPrCO(2,2,3,3-Me4)}-LDTSL [Tpc-Leu-Asp-Thr-Ser-Leu]",,,121 µM,% Adhesion Inhibition [4]: 39%
Ac-CLDTSLC (disulfide 1-7) [Ac-Cys*-Leu-Asp-Thr-Ser-Leu-Cys*],102,,,% Adhesion Inhibition [6]: 51%
LYTSL (modifications not checked) [Pba-Leu-Tyr-Thr-Ser-Leu],30,100,,
Ac-LDASL (not fully specified (C-terminus); printed as Ac-Leu-Asp-Ala-Ser-Leu) [Ac-Leu-Asp-Ala-Ser-Leu],1000,47,,
{Phenylacetyl(4-Ph)}-LDTSL (not fully specified (C-terminus); printed as Bipa-Leu-Asp-Thr-Ser-Leu) [Bipa-Leu-Asp-Thr-Ser-Leu],,,485 µM,% Adhesion Inhibition [4]: 54%
{Butanoyl(4-pyren-1-yl)}-LDTSL (not fully specified (C-terminus); printed as Pba-Leu-Asp-Thr-Ser-Leu) [Pba-Leu-Asp-Thr-Ser-Leu (00386-1A)],,,2.8 µM,% Adhesion Inhibition [7]: 88%

Binder,IC50 [1] [µM],% Adhesion Inhibition [2] [%],IC50 [5],other results
Ac-LDTSL-NH2 [Ac-Leu-Asp-Thr-Ser-Leu],,,530 µM and 278 µM,% Adhesion Inhibition [4]: 50% and 71%
{Acetyl(1-pyrenyl)}-LDTSL (not fully specified (C-terminus); printed as Paa-Leu-Asp-Thr-Ser-Leu) [Paa-Leu-Asp-Thr-Ser-Leu],,,0.5 µM,
Diphenylacetyl-LDTSL (not fully specified (C-terminus); printed as Dpa-Leu-Asp-Thr-Ser-Leu) [Dpa-Leu-Asp-Thr-Ser-Leu],,,11 µM,
Ac-LDSSL (not fully specified (C-terminus); printed as Ac-Leu-Asp-Ser-Ser-Leu) [Ac-Leu-Asp-Ser-Ser-Leu],611,38,,
Ac-GLDTS (not fully specified (C-terminus); printed as Ac-Gly-Leu-Asp-Thr-Ser) [Ac-Gly-Leu-Asp-Thr-Ser],745,43,,
PLDTSL (modifications not checked) [Pba-Pro-Leu-Asp-Thr-Ser-Leu],47,,,
Ibuprofenoyl-LDTSL (not fully specified (C-terminus); printed as Impa-Leu-Asp-Thr-Ser-Leu) [Impa-Leu-Asp-Thr-Ser-Leu],,,1140 µM,% Adhesion Inhibition [4]: 44%
Ac-LETSL (not fully specified (C-terminus); printed as Ac-Leu-Glu-Thr-Ser-Leu) [Ac-Leu-Glu-Thr-Ser-Leu],60.7,98,,
Ac-WRGLDT (not fully specified (C-terminus); printed as Ac-Trp-Arg-Gly-Leu-Asp-Thr) [Ac-Trp-Arg-Gly-Leu-Asp-Thr],725,46,,
Ac-RGLDTS (not fully specified (C-terminus); printed as Ac-Arg-Gly-Leu-Asp-Thr-Ser) [Ac-Arg-Gly-Leu-Asp-Thr-Ser],1790,31,,
LATSL (modifications not checked) [Pba-Leu-Ala-Thr-Ser-Leu],28,,,% Adhesion Inhibition [6]: 100%
Ac-RGLDT (not fully specified (C-terminus); printed as Ac-Arg-Gly-Leu-Asp-Thr) [Ac-Arg-Gly-Leu-Asp-Thr],542,48,,
Ac-GLDTSL (not fully specified (C-terminus); printed as Ac-Gly-Leu-Asp-Thr-Ser-Leu) [Ac-Gly-Leu-Asp-Thr-Ser-Leu],339,58,,
{Benzoyl(4-heptyl)}-LDTSL (not fully specified (C-terminus); printed as Hbz-Leu-Asp-Thr-Ser-Leu) [Hbz-Leu-Asp-Thr-Ser-Leu],,,401 µM,% Adhesion Inhibition [4]: 51%
Ac-LDTTL (not fully specified (C-terminus); printed as Ac-Leu-Asp-Thr-Thr-Leu) [Ac-Leu-Asp-Thr-Thr-Leu],101,98,,
{Hexanoyl(6-Ph)}-LDTSL (not fully specified (C-terminus); printed as Phx-Leu-Asp-Thr-Ser-Leu) [Phx-Leu-Asp-Thr-Ser-Leu],,,818 µM,% Adhesion Inhibition [4]: 32%

# From patent US20020103111A1, “Inhibitors of MAdCAM-1-mediated interactions and methods of use therefor” (Millennium Pharmaceuticals, Inc., priority 1996, published 2002)
